Consider three molecules from article PMC7497641, “Neurotropic activity and safety of methylene-cycloalkylacetate (MCA) derivative 3-(3-allyl-2-methylenecyclohexyl) propanoic acid” (ACS Chemical Neuroscience, 2020).

For assay [1], the target named is T1, Nicotinic acetylcholine Receptor alpha-4 beta-2 (nAChR(a4/b2)) (Homo sapiens, UniProt P17787+P43681).
T1 construct: host or cells: unnamed DiscoverX cell line
Briefly: cell-based. The note with it: Blocker; Ion channel; read-out: RC50 (the source's name).

Assay [2] has as its target Gamma-aminobutyric acid Receptor A (GABAA) (Homo sapiens, UniProt P14867+P18507+P47870). Briefly: SAFETYscan Ion channel assay. The assay is classed as cell-based. The note with it: Blocker, read-out: RC50 (the source's name).
Assay [3] deals with dorsal root ganglion (DRG) sensory neurons. Briefly: DRG neurite outgrowth assay. The format is cell-based, mice. The note with it: NGF 50 ng/mL, DRG explants, 5 days. The source says: In the second step, we study the effect of HU-MCA-13 on ex-vivo sensory neuronal cultures obtained from dissociated dorsal root ganglia (DRG), a model in which the neurons tend to extend neurites in culture at a high rate, and all neurite outgrowths are axons, as confirmed by immune staining for cytoskeletal-specific proteins.[27] […] By contrast, NGF induced a strong, 3.5-fold increase in neurite outgrowth to a value of 700 μm (Figure 1 and Figure 3B) and a ratio of 8.5 between the area covered by neurites and that covered by the DRG ganglia (Figure 3C). Similarly, HU-MCA-13 induced a 2.5 fold increase in neurite outgrowth to a value of about 500 μm (Figure 1 and Figure 3B) and a ratio of 5.4 between the area covered by neurites and that covered by the DRG ganglia (Figure 3C). […] These experiments extend the neurotropic effect of MCA-13 observed with PC12 dopaminergic neuronal cultures to DRG sensory neurons.
To perform these experiments, 10 DRGs were excised under sterile conditions and transferred to Dulbecco’s Modified Eagle Medium (DMEM) containing 0.25% Type IV collagenase in at 37 °C for 45 min, followed by a 20 min incubation with 0.025% trypsin in DMEM, to digest the associated connective tissue surrounding the neurons. After plating the ganglia onto collagen (50 μg/mL)/laminin mixture (5 μg/mL)-coated tissue culture wells for 24 h, DRG neurons were cultured for additional 1–7 days in fresh Neurobasal A/B27 medium[27] containing either 50 ng/mL NGF (positive control), medium containing 1% DMSO (negative control) or 5 μM MCA-13. The living cultures were photographed and thereafter, the ganglia were immunostained for β tubulin III and again photographed using a fluorescent microscope. A researcher blinded to the experimental conditions performed image analysis, and the neurite outgrowth length (in micrometers) was measured.[50]

The test system of assay [4] is PC12 dopaminergic cell cultures. Briefly: PC12 neurotropic (neurite outgrowth) assay. The assay is classed as cell-based, rat. The note with it: for neurite outgrowth, Df value: NGF alone 50 ng/mL.
Assay [5] has as its system adult rat spinal cord primary cultures. Briefly: Spinal cord neurons neurite outgrowth assay. The assay is classed as cell-based. The conditions noted are these: NGF 50 ng/mL. The procedure:
To study the effect of HU-MCA-13 on adult rat spinal cord primary cultures in vitro, we developed a purification procedure that yields enriched different types of spinal cord neuronal cultures. This neurotropic assay was performed using vehicle 1% DMSO in DMEM as control and 10 μM HU-MCA-13. The results in Figure 1 bottom row and Figure 3D clearly indicate that in control there was very poor spontaneous neurite outgrowth of a total length of about 180 μm and NGF induced neurite outgrowth to a total length of about 800 μm. Similarly, HU-MCA-13 induced a neurite outgrowth of 600 μm. Figure 2B indicates cytoskeletal-tubulin protein expression in the cultured neurons. These findings further extend the neurotropic effect of HU-MCA-13 to spinal cord neurons, in addition to DRGs and PC12 cells.
Spinal cords were isolated from adult rats (4–6 months old), and the meninges were removed from the spinal cord. The spinal cord was then cut into small pieces and collected in cold Hibernate A (Brainbits, Springfield, IL, USA), glutamine (0.5 mM), and B27 (Invitrogen, Carlsbad, CA). […] Neurite outgrowth was measured and presented as mean length of a neurite (microns). To measure neuronal survival, 450 cells were counted in 10 randomly chosen microscope fields of a known area in each of the three dishes per condition using a 20× objective and phase-contrast optics. […]

The subject of assay [6] is PGE2 production in PC12 cells. Briefly: PGE2 production measured by ELISA. The conditions noted are these: 50 ng/mL NGF; 24 h. (ELISA stands for enzyme-linked immunosorbent assay.)

Sequence of Gamma-aminobutyric acid Receptor A (GABAA) (P14867 28-456): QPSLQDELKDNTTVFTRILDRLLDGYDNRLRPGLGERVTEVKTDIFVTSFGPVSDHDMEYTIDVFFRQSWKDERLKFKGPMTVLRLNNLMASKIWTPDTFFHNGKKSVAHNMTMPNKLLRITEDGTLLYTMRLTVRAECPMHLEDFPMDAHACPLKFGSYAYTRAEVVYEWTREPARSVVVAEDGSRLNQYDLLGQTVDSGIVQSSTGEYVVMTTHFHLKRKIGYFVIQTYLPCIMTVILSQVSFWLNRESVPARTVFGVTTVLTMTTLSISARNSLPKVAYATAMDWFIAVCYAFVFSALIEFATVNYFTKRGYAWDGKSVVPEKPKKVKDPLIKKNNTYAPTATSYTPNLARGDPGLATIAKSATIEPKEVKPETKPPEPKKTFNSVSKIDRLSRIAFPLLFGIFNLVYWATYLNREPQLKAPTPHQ
Sequence of Gamma-aminobutyric acid Receptor A (GABAA) (P47870 26-512): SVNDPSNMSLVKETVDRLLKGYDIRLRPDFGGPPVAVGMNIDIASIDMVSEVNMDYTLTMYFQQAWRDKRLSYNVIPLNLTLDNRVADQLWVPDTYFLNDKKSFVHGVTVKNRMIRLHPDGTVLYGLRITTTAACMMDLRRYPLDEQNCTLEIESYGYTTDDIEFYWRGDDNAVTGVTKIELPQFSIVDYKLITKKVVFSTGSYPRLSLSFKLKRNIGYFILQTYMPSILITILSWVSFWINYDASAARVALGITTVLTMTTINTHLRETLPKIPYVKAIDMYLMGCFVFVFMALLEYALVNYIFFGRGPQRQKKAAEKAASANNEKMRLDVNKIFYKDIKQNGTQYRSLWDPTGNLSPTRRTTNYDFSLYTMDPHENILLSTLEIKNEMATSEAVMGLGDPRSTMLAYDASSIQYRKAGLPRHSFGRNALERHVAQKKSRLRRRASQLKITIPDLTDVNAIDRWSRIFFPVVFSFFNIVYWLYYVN
Sequence of Gamma-aminobutyric acid Receptor A (GABAA) (P18507 40-475): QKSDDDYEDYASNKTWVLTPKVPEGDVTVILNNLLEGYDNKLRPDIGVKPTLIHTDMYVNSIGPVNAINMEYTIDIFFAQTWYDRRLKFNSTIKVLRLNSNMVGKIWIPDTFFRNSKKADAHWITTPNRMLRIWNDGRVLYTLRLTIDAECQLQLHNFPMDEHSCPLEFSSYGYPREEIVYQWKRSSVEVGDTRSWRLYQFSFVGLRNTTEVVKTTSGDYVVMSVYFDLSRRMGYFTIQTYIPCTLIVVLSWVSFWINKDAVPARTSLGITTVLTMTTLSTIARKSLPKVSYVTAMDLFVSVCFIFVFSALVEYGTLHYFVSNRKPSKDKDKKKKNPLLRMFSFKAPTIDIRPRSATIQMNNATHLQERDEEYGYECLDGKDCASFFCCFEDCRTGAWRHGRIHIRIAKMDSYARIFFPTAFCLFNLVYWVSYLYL
T1 sequence (P43681 29-627 limits assumed): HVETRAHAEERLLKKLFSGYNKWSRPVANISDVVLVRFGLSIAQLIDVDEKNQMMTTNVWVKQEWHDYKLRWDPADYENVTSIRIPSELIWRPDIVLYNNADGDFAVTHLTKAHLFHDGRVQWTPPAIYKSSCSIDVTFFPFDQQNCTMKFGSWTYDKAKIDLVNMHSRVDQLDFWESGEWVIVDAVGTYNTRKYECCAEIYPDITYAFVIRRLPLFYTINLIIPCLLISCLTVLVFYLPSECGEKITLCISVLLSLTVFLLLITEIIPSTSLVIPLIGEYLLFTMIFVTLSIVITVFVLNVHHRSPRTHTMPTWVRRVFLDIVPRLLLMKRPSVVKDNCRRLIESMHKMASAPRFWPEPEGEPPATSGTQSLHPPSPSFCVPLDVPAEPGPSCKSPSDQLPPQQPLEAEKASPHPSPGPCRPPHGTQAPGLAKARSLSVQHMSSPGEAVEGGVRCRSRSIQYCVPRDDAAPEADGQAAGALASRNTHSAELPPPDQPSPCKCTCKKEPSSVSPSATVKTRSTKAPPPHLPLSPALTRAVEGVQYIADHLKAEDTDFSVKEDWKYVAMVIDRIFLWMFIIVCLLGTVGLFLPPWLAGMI
T1 sequence (P17787 26-502): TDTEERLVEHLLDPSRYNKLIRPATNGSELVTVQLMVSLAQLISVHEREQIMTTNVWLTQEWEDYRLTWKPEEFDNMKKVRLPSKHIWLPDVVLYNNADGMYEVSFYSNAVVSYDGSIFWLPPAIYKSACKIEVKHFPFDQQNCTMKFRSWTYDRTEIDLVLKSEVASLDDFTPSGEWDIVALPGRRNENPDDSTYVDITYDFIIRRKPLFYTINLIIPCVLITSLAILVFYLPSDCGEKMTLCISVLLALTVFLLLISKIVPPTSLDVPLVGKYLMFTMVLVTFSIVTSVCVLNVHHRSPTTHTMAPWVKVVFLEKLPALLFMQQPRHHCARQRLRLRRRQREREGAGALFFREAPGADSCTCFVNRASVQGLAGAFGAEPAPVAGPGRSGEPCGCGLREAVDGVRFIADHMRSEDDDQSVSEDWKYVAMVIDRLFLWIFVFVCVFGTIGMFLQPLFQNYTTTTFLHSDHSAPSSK

For the molecule “Dihydro-AY-erythroidine [reference compound]”, the IC50 in assay [1] turned out to be 0.707 µM.
In the case of Picrotoxin, the IC50 in assay [2] came to 5.92 µM.

B1: NGF: Tissue culture grade mouse β-nerve growth factor, neurotrophin used as positive control (protein, UniProt P01139 122-241, looked up)
Beta-nerve growth factor: SSTHPVFHMGEFSVCDSVSVWVGDKTTATDIKGKEVTVLAEVNINNSVFRQYFFETKCRASNPVESGCRGIDSKHWNSYCTTTHTFVKALTTDEKQAAWRFIRIDTACVCVLSRKATRRG
modifications: Beta-nerve growth factor
notes: Tissue culture grade mouse β-nerve growth factor, neurotrophin used as positive control
Take B1: in assay [3], the neurite outgrowth length was found to be 700 μm; the “ratio between the area covered by neurites and that covered by the DRG ganglia” value is 8.5. Moreover, the “fold increase in neurite outgrowth” value in assay [3] (versus control medium) came to 3.5 fold. The “neurotropic effect in the presence of Trk A inhibitor K252a” value in assay [4] (250 nM K252a, 10 μM HU-MCA-13) was “abolished”. In addition, in assay [4] (2 days), the “neurite outgrowth, Df value” is reported as 0.54. Further, the “neurite outgrowth, Df value” in assay [4] (7 days) is on record as 0.4. Moreover, in assay [4] (low dose of NGF 1 ng/mL), the neurite outgrowth was found to be 10% and the “neurite outgrowth, Df” value came out at 0.05. Further, the “neurite outgrowth total length” value in assay [5] was “about 800 μm”. Besides, the “production of PGE2” value in assay [6] was “significantly increased”.
